Results: patent publication US11510990B2, “Conjugates of fusion proteins of GLP-1 and FGF21” (BEIJING QL BIOPHARMACEUTICAL CO., LTD., priority 2020, dated 2022)
Where a chain is given by its changes, count along the chain named.

B1: Compound 4: GLP-1/FGF21 fusion polypeptide SEQ ID NO: 4 conjugated with Moiety A at 51K and 231K (conjugate)
chain: HGEGTFTSDVSSYLEEQAAREFIAWLVRGGGGGGGSGGGGSGGGGSGGGGKHPIPDSSPLLQFGGQVRQRYLYTDDAQQTEAHLEIREDGTVGGAADQSPESLLQLRALRPGVIQILGVRTSRFLCQRPDGALYGSLHFDPEACSFRELLLEDGYNVYQSEAHGLPLHLPGQRSPHRDPAPRGPARFLPLPGLPPALPEPPGILAPQPPDVGSSDPLSLVGGSQGRSPSYKS
modifications: Moiety A conjugated at K51 and K231
B2: Compound 54: GLP-1/FGF21 fusion polypeptide SEQ ID NO: 151 conjugated with Moiety B at 51C and 231C (conjugate)
chain: B1 chain with R20K, K51C, R107K, R110K, R120K, R173K, K231C
modifications: Moiety B conjugated at C51 and C231
B3: Compound 20: GLP-1/FGF21 fusion polypeptide SEQ ID NO: 20 conjugated with Moiety A at 51K and 221K (conjugate)
chain: B1 chain with G221K, G222P, K231E
modifications: Moiety A conjugated at K51 and K221
B4: Compound 51: GLP-1/FGF21 fusion polypeptide SEQ ID NO: 148 conjugated with Moiety B at 51C and 222C (conjugate)
chain: B1 chain with R20K, K51C, R107K, R110K, R120K, R173K, G222C, K231E
modifications: Moiety B conjugated at C51 and C222
B5: Compound 15: GLP-1/FGF21 fusion polypeptide SEQ ID NO: 15 conjugated with Moiety A at 231K (conjugate)
chain: B1 chain with K51S, G222P
modifications: Moiety A conjugated at K231
B6: Compound 52: GLP-1/FGF21 fusion polypeptide SEQ ID NO: 149 conjugated with Moiety B at 51C and 225C (conjugate)
chain: B1 chain with R20K, K51C, R107K, R110K, R120K, R173K, G225C, K231E
modifications: Moiety B conjugated at C51 and C225
B7: Compound 21: GLP-1/FGF21 fusion polypeptide SEQ ID NO: 21 conjugated with Moiety A at 51K and 225K (conjugate)
chain: B1 chain with G225K, K231E
modifications: Moiety A conjugated at K51 and K225
B8: Compound 48: GLP-1/FGF21 fusion polypeptide SEQ ID NO: 88 conjugated with Moiety A at 51K and 222K (conjugate)
chain: HGEGTFTSDVSSYLEEQAAREFIAWLVRGGGGAQPGAQPGAQPGAQPGAQKHPIPDSSPLLQFGGQVRQRYLYTDDAQQTEAHLEIREDGTVGGAADQSPESLLQLRALRPGVIQILGVRTSRFLCQRPDGALYGSLHFDPEACSFRELLLEDGYNVYQSEAHGLPLHLPGQRSPHRDPAPRGPARFLPLPGLPPALPEPPGILAPQPPDVGSSDPLSLVGKSQGRSPSYES
modifications: Moiety A conjugated at K51 and K222
B9: Compound 71: GLP-1/FGF21 fusion polypeptide SEQ ID NO: 168 conjugated with Moiety B at 52C and 282C (conjugate)
chain: HGEGTFTSDVSSYLEEQAAKEFIAWLVKGGGGAQPGAQPGAQPGAQPGAQPCQAPGAQPGAQPGAQPGAQPGAQPGAQPGAQPGAQPGAQPGAQPGAQPGAQPGAQPGAQPHPIPDSSPLLQFGGQVRQRYLYTDDAQQTEAHLEIREDGTVGGAADQSPESLLQLKALKPGVIQILGVKTSRFLCQRPDGALYGSLHFDPEACSFRELLLEDGYNVYQSEAHGLPLHLPGQKSPHRDPAPRGPARFLPLPGLPPALPEPPGILAPQPPDVGSSDPLSLVGCSQGRSPSYES
modifications: Moiety B conjugated at C52 and C282
B10: Compound 73: GLP-1/FGF21 fusion polypeptide SEQ ID NO: 170 conjugated with Moiety B at 42C and 282C (conjugate)
chain: B9 chain with A41Q, Q42C, C52G, Q53A, A54Q
modifications: Moiety B conjugated at C42 and C282
B11: Compound 72: GLP-1/FGF21 fusion polypeptide SEQ ID NO: 169 conjugated with Moiety B at 62C and 282C (conjugate)
chain: B9 chain with C52G, Q53A, A54Q, A61Q, Q62C
modifications: Moiety B conjugated at C62 and C282
B12: Compound 66: GLP-1/FGF21 fusion polypeptide SEQ ID NO: 163 conjugated with Moiety B at 51C and 225C (conjugate)
chain: HGEGTFTSDVSSYLEEQAAKEFIAWLVKGGGGSAPGSPAGSPTGSAPGSPCHPIPDSSPLLQFGGQVRQRYLYTDDAQQTEAHLEIREDGTVGGAADQSPESLLQLKALKPGVIQILGVKTSRFLCQRPDGALYGSLHFDPEACSFRELLLEDGYNVYQSEAHGLPLHLPGQKSPHRDPAPRGPARFLPLPGLPPALPEPPGILAPQPPDVGSSDPLSLVGGSQCRSPSYES
modifications: Moiety B conjugated at C51 and C225
B13: Compound 22: GLP-1/FGF21 fusion polypeptide SEQ ID NO: 22 conjugated with Moiety A at 51K and 231K (conjugate)
chain: HGEGTFTSDVSSYLEEQAAREFIAWLVRGGGGGGGSGGGGSGGGGSGGGGKHPIPDSSPLLQFGGQVRQRYLYTDDAQQTEAHLEIREDGTVGGAADQSPESLLQLRALRPGVIQILGVRTSRFLCQRPDGALYGSLHFDPEACSFRELLLEDGYNVYQSEAHGLPLHLPGQRSPHRDPAPRGPARFLPLPGLPPALPEPPGILAPQPPDVGSSDPLSLVGGSQGRSPSYK
modifications: Moiety A conjugated at K51 and K231
B14: Compound 50: GLP-1/FGF21 fusion polypeptide SEQ ID NO: 117 conjugated with Moiety A at 51K and 233K (conjugate)
chain: HGEGTFTSDVSSYLEEQAAREFIAWLVRGGGGGGGSGGGGSGGGGSGGGGKHPIPDSSPLLQFGGQVRQRYLYTDDAQQTEAHLEIREDGTVGGAADQSPESLLQLRALRPGVIQILGVRTSRFLCQRPDGALYGSLHFDPEACSFRELLLEDGYNVYQSEAHGLPLHLPGQRSPHRDPAPRGPARFLPLPGLPPALPEPPGILAPQPPDVGSSDPLSLVGGSQGRSPSYESK
modifications: Moiety A conjugated at K51 and K233

Tests used:
[1] = Body weight reduction in C57BL/6 mice, daily subcutaneous dosing; format: in vivo; conditions: for Body weight reduction at 30 nmol/kg (% reduction compared to vehicle)(Day11): male C57BL/6 mice, 30 nmol/kg subcutaneously everyday, Day 11
Protocol: FIGS. 1A-1F show in vivo activities of fusion protein conjugates. […] Body weight was measured daily. […] Compared to Vehicle control: ***, p<0.001. All data are expressed as mean values and standard error (SEM).
10 week old male C57BL/6 mice were injected everyday subcutaneously with 30 nmol/kg exemplary fusion protein conjugates for 10 or 14 days (n=5). Body weight was daily monitored for each individual animal. Day 1 and Day 10 (or Day 14) are first day and last day of molecule dosage. % BW loss=100*(BW on Day n-BW on Day 1)/(BW on Day 1). Data are indicated as mean values and standard error (SEM) or pooled values. Statistical analysis was performed by One-way ANOVA. Body weight reduction on Day 11 in Table 5 is calculated by −1*(% BW loss−% BW loss of vehicle group).

[2] = Pharmacokinetic measurement in C57BL/6 mice, single subcutaneous dose, plasma ELISA; format: in vivo
Protocol: Each fusion protein conjugate was injected subcutaneously into C57BL/6 mice (n=3/group) once and plasma samples were collected at designed timepoints and analyzed by ELISA method. Plasma concentrations are indicated as mean values and standard error (SEM).
6-8 week old male C57BL/6 mice were administrated in a single subcutaneous dose of 30 nmol/kg of the exemplary fusion protein conjugates (Compounds 4, 9, 10, 19, 63) or the non-acylated fusion protein (i.e., Compound 3, which has the amino acid sequence identical to Compound 2 but without any conjugation) (n=3/group). Plasma samples were collected pre-dose (−5 min), 0.5 hr, 1 hr, 2 hr, 4 hr, 6 hr, 8 hr, 12 hr and 24 hr hours after the injection. For Compound 3, plasma collection timepoints were −5 min, 0.25 h, 0.5 h, 1 h, 2 h, 4 h and 6 h. The concentrations of the fusion protein conjugates or the non-acylated fusion protein in the plasma were measured by an ELISA assay which has immunoreactivities towards both C-terminal FGF21 and intact N-terminal of GLP-1. Based on the graph showing plasma concentration of each protein versus time after subcutaneous injection, the pharmacokinetic parameters were calculated by WinNonlin.
Pharmacokinetic data were analyzed by WinNonlin software. Tmax, Cmax, T1/2, AUC and MRT were calculated for each molecule.

[3] = single subcutaneous dose 30 nmol/kg, plasma

Molecule | Body weight reduction at 30 nmol/kg (% reduction compared to vehicle)(Day11) [1] [%] | further results
B1 | 27.0 | BW reduction compared to Semaglutide ([1]; 30 nmol/kg, 10-day dosing period (FIGS. 1A-1B)): much more enhanced and persistent BW reduction; AUC compared to non-acylated fusion protein (Compound 3) ([2]; 30 nmol/kg subcutaneous): larger AUC; Half-lives of double acylated compared to monoacylated Compounds 9 and 10 ([2]; 30 nmol/kg subcutaneous): significantly prolonged half-lives; PK properties compared to Semaglutide ([2]; 30 nmol/kg subcutaneous): better PK properties; AUClast [2, 3]: 1.0196 µM·h; Cmax [2, 3]: 58.3 nM; Terminal t1/2 [2, 3]: 19.7 h; Tmax [2, 3]: 8 h
B2 | 13.5 | 
B3 | 26.6 | 
B4 | 26.2 | 
B5 | 11.3 | 
B6 | 20.9 | 
B7 | 34.4 | 
B8 | 27.8 | 
B9 | 24.5 | 
B10 | 20.2 | 
B11 | 25.8 | 
B12 | 18.9 | 
B13 | 32.9 | 
B14 | 9.4 | 
